From patent US5985278A (Merck Patent Gesellschaft mit Beschrankter Haftung, priority 1994, dated 1999)
Where “and” joins values, the source holds several entries; their conditions need not be identical. Equal values may be shown once. Read-outs that look alike come from different tables or passages of the source. Values belong to the molecule of their own block, whether it stands above or below them.

What was measured:
[1] = tested on: human melanoma and carcinoma cell lines; assay: αV-mediated cell attachment to vitronectin, cell line panel; format: cell-based; conditions: read-out: IC50 in cellular assay
Description: (§1) Cell Attachment Assays were as previously described (Goodman et al., 1991), using hexosaminidase activity (Landegren, 1984) to detect attached cells. Dilutions and cell suspensions were in attachment buffer (RPMI, 1% BSA, 25 mM HEPES; pH 7.4). Matrix proteins were coated onto 96- or 48-well plates, the wells were blocked with BSA and serially diluted MAbs were added to the wells followed by cells (2.5×10^4 -5×10^4). After 1 h at 37° C., non-adherent cells were washed away and attached cells counted against a standard curve run in parallel. Inhibition of attachment was calculated by using wells with no MAbs as reference. Typically, over 70% of added cells had attached to vitronectin at 1 h. Cell attachment to wells coated with BSA alone was routinely less than 5% of specifically attached cells.

[2] = target: purified human placental integrin αvβ3 (human) (UniProt P06756); assay: pre-block competition: ligand pre-bound to αvβ3-coated plates, labelled 17E6 as probe
[3] = target: purified human placental integrin αvβ3 (human) (UniProt P06756); assay: isolated receptor assay, vitronectin on αvβ3-coated plates
[4] = target: T1, integrin αvβ3 on human cells (human, UniProt P06756)
[5] = target: T2, integrin αvβ5 on human cells (human, UniProt P06756); assay: cell-based or functional assay
[6] = target: T1, integrin αvβ3 on human cells; assay: cell-based or functional assay
[7] = target: purified human placental integrin αvβ3 (human) (UniProt P06756); assay: ELISA on isolated αvβ3
[8] = target: T2, integrin αvβ5 on human cells; parameters: IC50, M21 cell attachment to vitronectin: unit not given beside the values
[9] = target: human αv-integrin chain on the cell surface (human) (UniProt P06756); parameters: IC50, M21 cell attachment to vitronectin: unit not given beside the values
[10] = target: integrin β3 chain, intracellular pool of M21-L cells (human, UniProt P05106); assay: flow cytometry, permeabilized M21-L cells
[11] = target: human αv-integrin chain on the cell surface (human) (UniProt P06756)
[12] = target: integrin αIIbβ3 on M21-L-IIb cells (human, UniProt P08514); assay: CELISA, fixed M21-L-IIb cells
[13] = target: purified human placental integrin αvβ3 (human) (UniProt P06756); assay: direct competition with biotinylated vitronectin on αvβ3-coated plates, 70 nM antibody
[14] = target: human αv-integrin chain on the cell surface (human) (UniProt P06756); remark: listed apart in the source
[15] = target: integrin αvβ1 on V+B2 cells
αvβ5 (UCLA-P3 cells) = assay: Cell attachment to vitronectin mediated by αvβ5 (UCLA-P3 cells); format: cell-based, human; conditions: vitronectin, FIG. 11
Description: as §1

αvβ1 (V+B2 cells) = assay: Cell attachment to vitronectin mediated by αvβ1 (V+B2 cells); format: cell-based; conditions: FIG. 11
Description: as §1

[16] = tested on: αvβ3 (WM164 and M21 cells); assay: Cell attachment to vitronectin mediated by αvβ3 (WM164 and M21 cells); format: cell-based, human; conditions: FIG. 11
Description: as §1

purified αvβ3 = assay: ELISA on purified αvβ3; format: binding, human; conditions: FIG. 10
[17] = target: human αv-integrin chain on the cell surface (human, UniProt P06756); assay: cell-based or functional assay

- IC50 [1]: ~1 µM
Molecule: CC(C)[C@@H]1NC(=O)[C@@H](Cc2ccccc2)NC(=O)[C@H](CC(=O)O)NC(=O)CNC(=O)[C@H](CCCNC(=N)N)NC1=O [cRGDfV, cyclic peptide: Arg-Gly-Asp-DPhe-Val, reference compound]

- % block of labelled 17E6 binding [2]: < 10%
Molecule: fibrinogen (ligand)

- % block of labelled 17E6 binding [2]: < 10%
- saturation concentration [3]: 5 µg ml^-1 and 10 nM
Molecule: vitronectin (from UniProt P04004) (ligand)

- IC50, WM793 cell attachment to vitronectin [4]: 0.6 mg/L
Molecule: LM609 (antibody)

- IC50, UCLA-P3 cell attachment to vitronectin [5]: ~0.1 µg ml^-1 and ~700 pM
- IC50, WM164 and M21 cell attachment to vitronectin [6]: ~0.5 µg ml^-1 and ~3 nM
- EC50 [7]: 0.001 mg/L
B1: 17E6 F(ab')2 fragment (other)
VH: QVQLQQSGAELAEPGASVKMSCKASGYTFSSFWMHWVKQRPGQGLEWIGYINPRSGYTECNEIFRDKATMTADTSSSTAYMQLSGLTSEDSAVYYCASFLGRGAMDYWGQGTSVTVSS
VL: DIQMTQTTSSLSASLGDRVIISCRASQDISNYLSWYQQKPDGTVKLLIFYTSKLHSGVPSRFSGSGSGTDYSLTISNLDQEDIATYFCQQGNTFPYTFGGGTKVEMR

- IC50, UCLAP3 cell attachment to vitronectin [8]: 0.03 mg/L
- IC50, M21 cell attachment to vitronectin [9]: 0.1
- M21 cell attachment to vitronectin, purified antibody [9]: 85%
- binding result [10]: no binding
- IC50, cellular attachment assay [11]: 0.1 mg/L
- IC50, WM164 and M21 cell attachment to vitronectin [6]: ~0.5 µg ml^-1 and ~3 nM
- IC50, WM793 cell attachment to vitronectin [6]: ~0.06 mg/L
- binding result [12]: no binding
- % inhibition of vitronectin binding [13]: < 30%
- IC50, αV-mediated cell attachment [14]: 0.0003 to 0.001 µM
B2: monoclonal antibody 17E6 (antibody, V domains shown)
VH: B1 VH
VL: B1 VL

- fold activity in cell attachment to vitronectin, against αvβ3 [5]: 10000 fold
- IC50, WM164 and M21 cell attachment to vitronectin [6]: > 50 µg ml^-1 and > 400 nM
- EC50 [7]: 0.001 mg/L
- fold activity in cell attachment to vitronectin, against αvβ3 [15]: 10000 fold
B3: 17E6 F(ab') fragment (Fab, V domains shown)
VH: B1 VH
VL: B1 VL

- IC50, cell attachment mediated by αvβ5 (UCLA-P3 cells) (αvβ5 (UCLA-P3 cells)): ~ 0.1 μg ml^-1
- IC50, cell attachment mediated by αvβ1 (V+B2 cells) (αvβ1 (V+B2 cells)): ~ 0.1 μg ml^-1
- IC50, αvβ3 attachment (WM164 and M21 cells) [16]: ~ 0.5 μg ml^-1
B4: F(ab')2: F(ab')2 fragment of 17E6 prepared by pepsin cleavage (antibody, V domains shown)
VH: B1 VH
VL: B1 VL
- 50% saturation in ELISA on isolated αvβ3 (purified αvβ3): ~ 1 ng ml^-1

- IC50, αV-mediated cell attachment [17]: ~5 µM
Molecule: GRGDSPK [linear peptide GRGDSPK]
